Consider one substance from patent US20240269276A1.

Like-named read-outs stand apart in the source and are kept apart here.

For test [1], the target named is human PD-L1 on CHO-K1 cells overexpressing human PD-L1 (human) (UniProt Q9NZQ7). Kind of test: flow cytometry on CHO-K1 cells overexpressing human PD-L1 (CHO-K1/hPD-L1); isotype control [continued) D].
Test [2] shares this target. Nature of the test: flow cytometry on CHO-K1 cells overexpressing human PD-L1 (CHO-K1/hPD-L1); isotype control, EC50 given as N.A.
For test [3], the target named is cynomolgus monkey PD-L1 on CHO-K1 cells overexpressing cynomolgus monkey PD-L1 (cynomolgus monkey) (UniProt G7PSE7). Kind of test: flow cytometry on CHO-K1 cells overexpressing cynomolgus monkey PD-L1 (CHO-K1/cynoPD-L1); isotype control, EC50 given as N.A.
The target is the same in test [4]. The description is as above. The source holds these as a separate data set.
Test [5] has the same target. Described as above. This is another data set of the same source.
Test [6] deals with human PD-L1 on CHO-K1 cells overexpressing human PD-L1 (human) (UniProt Q9NZQ7). Nature of the test: flow cytometry on CHO-K1 cells overexpressing human PD-L1 (CHO-K1/hPD-L1); isotype control, fit value printed for a curve that stays at the baseline [continued) D].

Sequence of human PD-L1 on CHO-K1 cells overexpressing human PD-L1 (human) (Q9NZQ7 19-290): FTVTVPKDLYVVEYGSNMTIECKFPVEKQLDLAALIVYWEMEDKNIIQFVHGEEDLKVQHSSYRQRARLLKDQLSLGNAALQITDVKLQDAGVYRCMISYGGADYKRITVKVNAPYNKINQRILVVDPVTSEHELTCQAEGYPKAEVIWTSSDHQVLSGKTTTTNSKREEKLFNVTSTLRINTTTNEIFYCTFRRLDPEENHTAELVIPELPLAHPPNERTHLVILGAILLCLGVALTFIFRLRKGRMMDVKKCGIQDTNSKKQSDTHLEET
Sequence of cynomolgus monkey PD-L1 on CHO-K1 cells overexpressing cynomolgus monkey PD-L1 (cynomolgus monkey) (G7PSE7 entry or part of it limits assumed): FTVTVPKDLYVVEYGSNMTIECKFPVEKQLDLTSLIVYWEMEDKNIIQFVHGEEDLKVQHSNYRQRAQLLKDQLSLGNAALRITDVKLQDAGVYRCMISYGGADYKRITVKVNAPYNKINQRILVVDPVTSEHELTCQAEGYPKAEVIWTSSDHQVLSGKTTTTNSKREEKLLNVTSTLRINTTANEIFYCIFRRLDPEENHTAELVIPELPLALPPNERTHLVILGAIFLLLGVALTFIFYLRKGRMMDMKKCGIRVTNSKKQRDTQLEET

Turning to hIgG1 (antibody), the Maximum MFI in test [1] was 595 MFI; in test [2], 86 MFI; in test [3] it was 123 MFI; in test [4], 112 MFI; in test [5] it was 125 MFI. This substance also had an EC50 in test [6] of 0.0759 µM.
